The nanobody polyreactivity screen of Harvey et al. (2022)

Assay: yeast display, Sf9 membrane polyspecificity reagent, FACS + sequencing; frameworks hold sequencing errors
Method in brief: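 Nanobodies came from a synthetic yeast display library in Saccharomyces cerevisiae BJ5465, induced with galactose for 36–48 hours and stained for 1 hour at 4 °C with 10% biotinylated, detergent-solubilized Sf9 membrane reagent. Cells were enriched on streptavidin microbeads and then FACS-sorted, with low and high (top ~1%) gates set on anti-HA fluorescence for expression and streptavidin fluorescence for reagent binding. Each polyreactivity label reflects the gate a clone came from. Genes were amplified by colony PCR, sequenced by MiSeq 2 × 250 and filtered by CDR length.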

| Sequence | polyreactivity (PSR sort gate) |
| --- | --- |
| QVQLVESGGGLVQAGGSLRLSCAASGRTFITNAMGWSRPAPGKEREFVAAIRGGRGSTYYADSVKGRFTISRDNAKNTVYLQMNSVKPEDTAVYFCAARYWLFPRGYNYWGQGTQVTVSS | high polyreactivity |
| QVQLVESGGGLVQAGGSLRLSCAASGSIFGRYAMGLYRQAPGKERELVATISRTGGSTNYADSVKGRFTISRDNAKNTVSLQMNSLKPEDTAVYYCNAASVYANYYTYVDYYTEGFYYWGQGTQVTVSS | low polyreactivity |
| QVQLVESGGGLVQAGGSLRLSCAASGGIFSRNAMGWSRQAPGKERELVAAISSGGSTYYADSVKGRFTISRDNAKNTVYLQMNTLKPEDTAVYYCAAKRSGQRTLLGYWGQGTQVTVSS | high polyreactivity |
| HVQLVESGGGLVQAGGSLRLSCAASGRTLGSYAIGWYRQAPGKARELVAAISGGSTNYADSVKGRFTISRDNAKNTVYLQMNRLKPEDTAVYYCAADPYGYLYDSWGQGTQVTVSS | low polyreactivity |
| QVQLVESGGGLVQAGGSLRLSCAASGSIFGKNAMGWYRQARGKERELVAAITWSGGSTYYADSVKGRFTISRENAKNTVYLQMNSLKPEDTAVYYCNAVRVRVTSHRIRQLDFGYWGQGTQVTVSS | low polyreactivity |
| QVQLVESGGGLVQAGGSLSLSCAASGSIFPHYAMGWYRQAPGKERELVAAISRSGTSTYYADSVKGRFTISRDNAKNTVYLQMNSLNPEDTAVYYCATGYRRDHDDYWGQGTQVTVSS | high polyreactivity |
| QVQLVESGGGLVQAGGSLRLSCAASGSTFYVYAMGWYRQAPGKERELVAVIRYRGDRTYYADSVKGRFTISRDNAKNTVYLQMNSLKPEDTAVYYCAKEGFYKYYWGQGTQVTVSS | high polyreactivity |
| QVQLVESGGGLVQAGGSLRLSCAASGYTFNNYAMGWYRQAPGKERELVAAISSSGGSTYYADSVKGRFTISRDNAKNTRYFQMNSLKPEDTAVYYGDGRPFGHGDYRGYYYWGQGTQVTVSS | low polyreactivity |
| QVQLVESGGGLVQAGGSLRLSCAASGRIFKVYTMGWYRQAPGKERELVATITRSGTSTYYADSVKGRFTISRDIAKNTVYLQMNSLKPEDTAVYYCARLVGYKFSYDYWGQGTQVTVSS | high polyreactivity |
| QVQLVESGGGLDQAGGSLRLSCPASGRTISRNTMGWYRPAPGKERELVAGITYGGDRTYYADSVKGRFTISRDNAKNTVYLQMNSLKPEDTAVYYCAAPWYWKGLRDYWGQGTQVTVSS | low polyreactivity |
| QVQLVESGGGLVQAGGSLRLSCGASGIIFFNNVMGWYRHAPGKERELVAAITFSGSSTYYADSVKGRFTISRDNAKNTVYLQMNSMKPEDTAVYYCAAKYYGVLYTVPGDDYWGQGTLVTVSS | low polyreactivity |
| QVQLVESGGGLVQAGGSLRLSCAASGSTFTSNTMGWCRQAPGKERELVAGITGAGSTNYADSVKGRFTISRDNEKNTVYLQMNSLKPEDTAVYYCAASVRWPRVSQRARYGYYYWGQGTQVAVSS | high polyreactivity |
| QVQLVESGGGLVQAGGSLRLSCAASGIIFYDYAMGGYREAPGKERELVATITRGGGTKYADSVKGRFTISRDNAKNTVYLQMNSLKPEDTAVYYCAADSHGVYEGDYCGQGTQVTVSS | low polyreactivity |
| QVQLVESGGGLVQAGGSLRLSCAASGYIISYNTMGWYRPAPGKERELVASIRWGGGRTYYADSVKGRFTISRDNAKNTVYLQLNSLKPEDTAVYYCNVKSSRFLDVGRMEYWGQGTQVTVSS | high polyreactivity |
| QFQLVESGGGVVQAGGSLRLSCAASGYTFYIYARGWYRQAPWKERELVAAISWTDGSTYYADSVKGRFTISRDNAKNTVYLQMNSLKPEDTAVYYCAKTSLYAGAKEYDYWGQGTQVTVSS | low polyreactivity |
| QVQLVESGGGLEQAGGRLRLICAASGRTFDRYPMGWYRQAPGKESELVAAITWSGGRTYYADSVKGRFTISRDNAKNTVYLQMNSLKPEDTAVYYCAADNSYRGYHSPYEYWGQGTQVTVSS | low polyreactivity |
| QVQLVESGGGLDQAGGSLRLSCAASGSIFVHYAMGWYRQAPGKERELVAGITFRGGRTYYADSVKGRFTISRDNAKNTVYLQMNSLKPEDTAVYYCAALYSVRGGYPSSHRIRMEYCGQGTQVTVSS | high polyreactivity |
| QVHLVESGGGLVQAGGSLRLSCTASGRTFKYNSMGSSRQEPGKERELVAAISSRGGSTYYADSVKGRFTISRDNAKNTVYLQMNSLKPEDTAVYYCAAQFTTRYDWGQGTQVTVSS | high polyreactivity |
| QVQLVESGGGLVQAGGSLRLSCAASGRTFYYYAMGWSRQAPGKERELVAAINRGGSTNYADSVKGRFTISRDNAKNTVYLQMNSQKPEATAVYDCNAAYYGPVRSKYVYWGQGTQVTVSS | high polyreactivity |
| QVQLVESGGGLVQAGGSLRLICAASGRTFYNAMGWYRQAPGKERELVAAISSAGRTYYADSVKGRFTISRDNAKNTVYLQMNSLKPEDTAVYYCAATAFSYYPYHGDYWGQGTQVTVSS | high polyreactivity |
| QVQLVESGGGLVQAGGSLRLSCAASGITFYRYAMGWYRQAPGKERELVAAITSSGGSTYYADSVKGRFTISRDNAKNTVYLQMNSLKPQDTAVYYCAARDLGRYPPKLYYWGQGTQVTVSS | high polyreactivity |
| QVQLVESGGGLVQAGGSLRLSCAASGSIFRTYTMGWYRQAPGKEREFVAAISRSGGSTYYADSVKGRFTISRDNAKNTVYLQMNSLKPEDTAVYYCNARCGLGSYGYWGQGTQVTVSS | high polyreactivity |

| Sequence | polyreactivity (PSR sort gate) |
| --- | --- |
| QVQLVESGVGLVQAGGSLRLSCAASGIIFYPNAMGWYRQAPGKERELVAAISWRSGSTYYADSVKGRFTISRDNAKKTVYLQMNSLKPEDTAVYYCNADFWYSYGYDYWGQGTQVTVSS | low polyreactivity |
| QVHLVESGGGLVQAGGSLRLSCAASGIILYRNAMGWYRQAPGKERELVAAITNTGSRTYYADSVKGRFTISRDNAKNTVYLQMTSLKPEDTAVYYCAAYYYYSAYGDDYWGQGTQVTVSS | high polyreactivity |
| QVQLVESGGGLVQAGGSLRLSCAASGSTFDYYVMGWYRQAPGKERELVASISSGGSTYYADSVKGRFTISRDNAKNTVYLQMNSLKPEDTAVYYCAARYYGRVGGYSIGYNYWGQGTQVTVSS | high polyreactivity |
| QVQLVESGGGLVQAGGSLRLSCAASGIIFHFNDMGWYRQAPGKERELVAAIDSTGSTNYADSVKGRFTISRDNAKNTVYLQMNSLKPEDTAVYYCAVLNHRVDSVLTRYYYWGQGTQVTVSS | low polyreactivity |
| QVQLVESGGGLVQAGGSLRLSCAASGLTFHRYAMGWYRQAPGKERELVAAINYSGGRTYYADSVKGRFTISRDNAKNTVYLQMNSLKPEDTAVYYCAASLYRRQMDHWGQGTQVTVSS | high polyreactivity |
| QVQLVESGGGLVQAGGSLRLSCAASGFIFSYYAMGWYRQAPGKERELVAAITQSGGGTYYADSVKGRFTISRDNAKNTVYLQMNSLKPEDTAVYYCAKSRRVYSREGWFHYRAYGYWGQGTQVTVSS | high polyreactivity |
| QVQLVESGGGLVKAGGSLRLSCAASGRIFVFNAMGWYRQAPGKERELVAAITSAGSTYYADSVKGRFTISRDNAKNTVYLQMNSLIPEDTAVYYCAAGSRRYRDDYWGQGTQVNVSS | low polyreactivity |
| QVQLVESGGGLVQAGGSLRLSCAASGLTFRQYAMGWYRQAPGKERELVAAIDTGASTNYADSVKGRFTISRDNAKNTVYLQMNSLKPEDTAGYYCNAELWYGPDELTGDYWGQGTQVTVSS | low polyreactivity |
| QVQLVESGGGLVQAGGSLRLSCAASGRTFSGYAMGWYRQAPGKEREFVAVITYSGGSTYYADSVKGRFTMSRVNAKNTVYLQMNSLKPEDTAVYYCNADYVIFYQLVDFDYWGQGTQVTVSS | low polyreactivity |
| QVQLVESGGGLVQAGGSLRLSCAASGIIFGRYAMGWYRQAPGKERELVAAITWSGGGTYYADSVKGRFTISRDNAKNTVYLQMNSLKPEDTAVYYCAARTTPHWGYVSTNYWGQGTQVTVSS | low polyreactivity |
| QVQLVESGGGLVQAGGSLRLSCAASGFTIYYYAMGWYRQAPGKERELVASITSGGSTYYADSVKGRFTISRDNAKNTVYLQMNSLKPEDTAVYYCAKTRFHSKEGDYWGQGTQVTVSS | low polyreactivity |
| QVHLVESGGGLVQAGGSLRLSCAASGGTFQSYAMGWYRQAPGKERELVAAITQGGGRTYYADSVKGRFTISRDNAKNTVYLQMNSLKPEDTAVYYCAARQKTPYYYNYGYWGQGTQVTVSS | high polyreactivity |
| QVQLVESGGGLVQAGGSLRLSCAASGRILHGYAMGWYRQAPGKERELVAAITSSGGRTYYADSVKGRFTISRDNAKNTVYLQMNSLKPEDTAVYYCAADRPAYRTGDSKYDYWGQGTQVTVSS | low polyreactivity |
| QVQLVESGGGLVQAGGSLRLSCAASGRTLHAYTMGWYRQAPGSERELVAAITRGGGNTYYADSVKGRFTISRDNAKNTVYLQLNSLKPEDTAVYYCNAAVSGYLSYEYDYWGQGTQVTVSS | low polyreactivity |
| QVQLVESGGGLVQAGGSLRLSCAASGRTFGTYAMGWYRQAPGKEREFVAAISRNGGSTYYADSVKGRFTISRDNAKNTVYLQMNSLKPEDTAVYYCATGVLWSAYRYRPNLGYDDWGQGTQVTVSS | low polyreactivity |
| QVQLVESGGGLVQAGGTLRLSCAASGRTFNYAMGWYRQAPGKERELVATITSGGSTNYADSVKGRFTISRDNAKNTVYLQLNSLKPEDTAVYYCNRDIPPGNYYKALYYYWGQGTQVTVSS | low polyreactivity |
| QVQLVESGGGLVQAGGSLRLSCAASGSIFDDNAMGWYRQAPGKERELVAAISANDGSTYYADSAKGRFTISRDNAKNTVYLQMNTLKPEDTAVYYCAAERYLSFDRYLYEYYYWGQGTQVTVSS | low polyreactivity |
| KGQLVESGGGLVQAGGSLRLSCAASGSIFGENAMGWYRQAPGKERELVAAITSSGSTYYADSVKGRFTISRANAKNTVYLQMNSLKPEDTAVYYCAKVSVLRMDYWGQGTQVTVSS | low polyreactivity |
| QVQLVESGGGLVQAGGSLRLSCAASGFTSAPYAMGWNRQAPGKERELVAAISSGDTTSYADSVKGRFTISRDNEKNTVYFQMNSLKPEDTAVYYCAAVYFNVIESYKTAGYDYWGQGTQVTVSS | low polyreactivity |
| QVQLVESGGGLVQAGGTLRLSCAACGFTFSSYAMGWYRQAPGKERELVAAITYRGGSTYYADSVKGRFTISRDNAMNNVYLQMNSLKPEDTAVYYCAARWGYRMYWGQGTQVTVSS | high polyreactivity |
| QVQLVESGGGLVHAGGSLRLSCAASGSTFWANAMGWYRPPPGKERELVAAITSTGITYYADSVKGRFTISRDNAKNTVYLQMNSLKPEDTAVYYCAADGFRYSVYLIRNPMDYWGQGTQVTVSS | low polyreactivity |
